Results reported in paper PMC11228984, “TREK2 Lipid Binding Preferences Revealed by Native Mass Spectrometry” (Journal of the American Society for Mass Spectrometry, 2024).

Molecular target: the molecule itself
Test: native MS; 200 mM ammonium acetate, 0.062% C10E5, nanoelectrospray, Orbitrap EMR, room temperature; sample expressed with kifunensine and treated with EndoH

B1: TREK2^N84Q (TREK2 residues 55-335, T58A, N144Q, C-terminal StrepTag-II) (domain or fragment, UniProt P57789-1 55-335, looked up)
chain: MEGASQGGLQTVMKWKTVVAIFVVVVVYLVTGGLVFRALEQPFESSQKNTIALEKAEFLRDHVCVSPQELETLIQHALDADNAGVSPIGQSSNNSSHWDLGSAFFFAGTVITTIGYGNIAPSTEGGKIFCILYAIFGIPLFGFLLAGIGDQLGTIFGKSIARVEKVFRKKQVSQTKIRVISTILFILAGCIVFVTIPAVIFKYIEGWTALESIYFVVVTLTTVGFGDFVAGGNAGINYREWYKPLVWFWILVGLAYFAAVLSMIGDWLRVLSKKTKEEVGE
modifications: remaining inner core GlcNAc on Asn after EndoH cleavage; potential modifications of the glycan
notes: TREK2, two-pore domain potassium channel, UniProt P57789-1, residues 55-335 with T58A; The text introduces the mutant as N144Q and then calls it TREK2^N84Q; The Addgene plasmid is named for the parent construct with T58A; also called TREK2 N144Q
- stoichiometry N: 2
